From article PMC2612750, “Identification of Pax6-Dependent Gene Regulatory Networks in the Mouse Lens”

Key:
Pax6 GST-PD/HD = Pax6 GST-PD/HD (UniProt P63015 4-269); experiment: EMSA; EMSA: 0.5-1 ng 5'-end-labelled probe, 2 ug poly(dI-dC), room temperature 10 min, 5% PAGE in 0.5x TBE; competitor 50 ng cold P6CON (~50:1); binding buffer, salt; conditions: protein: recombinant; tags: GST; label: 5'-end label (radioactive)
Pax6 GST-PD = Pax6 GST-PD (UniProt P63015 4-130); experiment: as above; conditions: protein: recombinant; tags: GST; label: 5'-end label (radioactive)
Pax6 GST-PD, sequence (P63015 4-130): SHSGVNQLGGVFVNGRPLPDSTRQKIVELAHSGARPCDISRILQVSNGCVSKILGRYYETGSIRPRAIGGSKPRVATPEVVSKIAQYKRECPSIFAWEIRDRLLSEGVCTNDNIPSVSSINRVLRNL

Pax6 GST-PD/HD, sequence (P63015 4-269): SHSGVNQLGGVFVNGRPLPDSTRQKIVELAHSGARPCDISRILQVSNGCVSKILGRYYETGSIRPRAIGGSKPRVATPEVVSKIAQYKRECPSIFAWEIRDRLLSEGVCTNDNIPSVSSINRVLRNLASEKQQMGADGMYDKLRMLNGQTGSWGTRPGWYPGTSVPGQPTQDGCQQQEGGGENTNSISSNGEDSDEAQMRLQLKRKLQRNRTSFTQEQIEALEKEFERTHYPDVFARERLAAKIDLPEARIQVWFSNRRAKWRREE

B1: P6CON (dsDNA)
DNA 1: GGATGCAATTTCACGCATGAGTGCCTCGAGGGATCCACGTCGA
DNA 2: TCGACGTGGATCCCTCGAGGCACTCATGCGTGAAATTGCATCC
B1: binds (Pax6 GST-PD/HD); binds (Pax6 GST-PD).
